From US20240269303A1, “CELL TARGETING CONSTRUCTS AND USES THEREOF” (Research Development Foundation, priority 2022, published 2024)
Where a chain is given by its changes, count along the chain named. Numbers in names are those of the source. Read-outs that look alike come from different tables or passages of the source.

Key:
OVCAR8/LGR5 cells = test: Growth rate inhibition assay (CCK8, 120 h exposure); assay type: cell-based, human
[1] = Plasma pharmacokinetics after IV injection (ELISA)
[2] = tested on: HEK293e empty vector cells versus cells overexpressing LGR5 receptors; test: FcST4-MMAE cytotoxicity assay (CCK8, day 6); assay type: cell-based, human; details: batches 2-6
[3] = Stability of FcST4-MMAE (storage, low pH, freeze and thaw); assay type: physicochemical
Description: Based on the hypothesis that RSPO1 could be used to target cytotoxic drugs selectively to CSC, a compound that contained 2 binding domains and armed this with the cytotoxin monomethylaurostatin (R1FF-MMAE) was generated. Since affinity of a ligand can be affected by the number of binding sites, tests were performed to see if the potency of R1FF-MMAE could be further enhanced by increasing the number of binding domains. A vector capable of expressing a protein containing 4 modified binding domains was constructed, and the FcST4-His protein was successfully produced in transiently transfected HEK293E cells and purified using nickel and ion exchange resins. Following attaching MMAE to the polypeptide using the sortase reaction, this drug (FcST4-MMAE) was characterized using gel electrophoresis, HPLC analysis on ion exchange and size exclusion columns, Western blot, and cytotoxicity testing.
To assess the stability of the FcST4-MMAE molecule, the sample was subjected to multiple freeze and thaw cycles.

[4] = tested on: OVCAR8 cells expressing empty vector versus cells overexpressing LGR5 receptors; test: FcST4-MMAE cytotoxicity assay; assay type: cell-based, human
[5] = OVCAR8/EV vs OVCAR8/LGR5, 120 h, Fu1/Fu2 binding-disabling mutation study
[6] = OVCAR8/EV and OVCAR8/LGR5, proteins produced in ExpiCHO

B1: FcF2-Q71R-MMAE (conjugate)
chain: EPKSCDKTHTCPPCPAPELLGGPSVFLFPPKPKDTLMISRTPEVTCVVVDVSHEDPEVKFNWYVDGVEVHNAKTKPREEQYNSTYRVVSVLTVDHHDWLNGKEYKCKVSNKALPAPIEKTISKAKGQPREPQVYTLPPSRDELTKNQVSLTCLVKGFYPSDIAVEWESNGQPENNYKTTPPVLDSDGSFFLYSKLTVDKSRWQQGNVFSCSVMHEALHSHYTQKSLSLSPGKGGGGSGGGGSSRGIKGKRQRRISAEGSQACAKGCELCSEVNGCLKCSPKLFILLERNDIRRVGVCLPSCPPGYFDARNPDMNKCIKCKIEHCEACFSHNFCTKCKEGLYLHKGRCYPACPEGSSAANGTMECSSPGGGGSGGGGSLPETGGG
modifications: non-natural residues
IC50 ratio (OVCAR8/LGR5 cells; [5]): 5.1

B2: FcF-Q71R-F106R-F110R-MMAE (conjugate)
chain: B1 chain with F328R, F332R
modifications: non-natural residues
IC50 ratio (OVCAR8/LGR5 cells; [5]): selectivity was abolished

B3: FcF2-R30A-MMAE: FcF2-MMAE with R30A substitution in the Fu1-Fu2 region (SEQ ID NO: 102) (conjugate)
chain: B1 chain with R252A, R293Q
modifications: non-natural residues
potency and selectivity for LGR5-rich cells compared with FcF2-MMAE (WT) (OVCAR8/LGR5 cells): neither the R28A nor the R30A mutation altered potency of selectivity

B4: FcF2-R28A-MMAE: FcF2-MMAE with R28A substitution in the Fu1-Fu2 region (SEQ ID NO: 98) (conjugate)
chain: B1 chain with R250A, R293Q
modifications: non-natural residues
increase of AUC0-120 versus FcF2-MMAE (WT) ([1]; IV injection): 3.4 fold
initial half-life versus FcF2-MMAE (WT) ([1]; IV injection): prolonged the initial half-life
plasma concentration higher than that of FcF2-MMAE ([1]; early phase of the plasma decay curve): > 2 orders of magnitude
potency and selectivity for LGR5-rich cells compared with FcF2-MMAE (WT) (OVCAR8/LGR5 cells): neither the R28A nor the R30A mutation altered potency of selectivity

B5: FcF2-F106R-F110R-MMAE (conjugate)
chain: B1 chain with R293Q, F328R, F332R
modifications: non-natural residues
IC50 ratio (OVCAR8/LGR5 cells; [5]): 2.1

B6: FcF2Δlinker-MMAE (conjugate)
chain: EPKSCDKTHTCPPCPAPELLGGPSVFLFPPKPKDTLMISRTPEVTCVVVDVSHEDPEVKFNWYVDGVEVHNAKTKPREEQYNSTYRVVSVLTVDHHDWLNGKEYKCKVSNKALPAPIEKTISKAKGQPREPQVYTLPPSRDELTKNQVSLTCLVKGFYPSDIAVEWESNGQPENNYKTTPPVLDSDGSFFLYSKLTVDKSRWQQGNVFSCSVMHEALHSHYTQKSLSLSPGKSRGIKGKRQRRISAEGSQACAKGCELCSEVNGCLKCSPKLFILLERNDIRQVGVCLPSCPPGYFDARNPDMNKCIKCKIEHCEACFSHNFCTKCKEGLYLHKGRCYPACPEGSSAANGTMECSSPLPETGGG
modifications: non-natural residues
IC50 values or degree of selectivity compared with FcF2-MMAE (OVCAR8/LGR5 cells; [6]): no clear differences in IC50 values or degree of selectivity
potency compared with FcF2-MMAE (OVCAR8/LGR5 cells; [6]): appeared to be less potent against both LGR5-poor and LGR5-rich cells

B7: FcF2-PNU159682: FcF2-His conjugated with PNU159682, an anthracycline derivative, using sortase A (conjugate)
chain: EPKSCDKTHTCPPCPAPELLGGPSVFLFPPKPKDTLMISRTPEVTCVVVDVSHEDPEVKFNWYVDGVEVHNAKTKPREEQYNSTYRVVSVLTVDHHDWLNGKEYKCKVSNKALPAPIEKTISKAKGQPREPQVYTLPPSRDELTKNQVSLTCLVKGFYPSDIAVEWESNGQPENNYKTTPPVLDSDGSFFLYSKLTVDKSRWQQGNVFSCSVMHEALHSHYTQKSLSLSPGKGGGGSGGGGSSRGIKGKRQRRISAEGSQACAKGCELCSEVNGCLKCSPKLFILLERNDIRQVGVCLPSCPPGYFDARNPDMNKCIKCKIEHCEACFSHNFCTKCKEGLYLHKGRCYPACPEGSSAANGTMECSSPGGGGSGGGGSLPET
modifications: cyclised or stapled
IC50 ratio (OVCAR8/LGR5 cells): approximately 10

B8: FcST4-MMAE: Mutated Fc with two receptor binding domains (ST) in series per chain (4 in dimer), sortase-conjugated to MMAE (conjugate)
chain: EPKSCDKTHTCPPCPAPELLGGPSVFLFPPKPKDTLMISRTPEVTCVVVDVSHEDPEVKFNWYVDGVEVHNAKTKPREEQYNSTYRVVSVLTVDHHDWLNGKEYKCKVSNKALPAPIEKTISKAKGQPREPQVYTLPPSRDELTKNQVSLTCLVKGFYPSDIAVEWESNGQPENNYKTTPPVLDSDGSFFLYSKLTVDKSRWQQGNVFSCSVMHEALHSHYTQKSLSLSPGKGGGGSGGGGSSRGIKGKRQRRISAEGSQACAKGCELCSEVNGCLKCSPKLFILLERNDIRQVGVCLPSCPPGYFDARNPDMNKCIKCKIEHCEACFSHNFCTKCKEGLYLHKGRCYPACPEGSSAANGTMECSSPGGGGSGGGGSSRGIKGKRQRRISAEGSQACAKGCELCSEVNGCLKCSPKLFILLERNDIRQVGVCLPSCPPGYFDARNPDMNKCIKCKIEHCEACFSHNFCTKCKEGLYLHKGRCYPACPEGSSAANGTMECSSPGGGGSGGGGSLPETGGG
modifications: non-natural residues
difference in targeted killing, empty vector vs LGR5-overexpressing cells [2]: not statistically significant
stability to freeze and thaw cycles (SEC130 trace) ([3]; 4 cycles): no significant change in the SEC130 trace
stability ([3]; at 4° C.): remarkably stable
stability ([3]; low pH of 3.0): remarkably stable
difference in targeted killing, empty vector vs LGR5-overexpressing cells ([4]; OVCAR8): not statistically significant
effect of increase in binding domains on potency ([4]; cytotoxicity testing): did not enhance potency
